Experiments:
[1] = target: human GPVI extracellular region-human Fc fusion protein (hGPVI-hFc) (human); assay: SPR (BIACORE3000) as in Example 5
[2] = target: human GPVI extracellular region-human Fc fusion protein (hGPVI-hFc) (human); assay: ELISA on immobilised hGPVI-hFc; + absorbance 0.5 to 1.0
[3] = target: human GPVI extracellular region-human Fc fusion protein (hGPVI-hFc) (human); assay: ELISA on immobilised hGPVI-hFc; +++ absorbance more than 2.0
[4] = target: human GPVI extracellular region-human Fc fusion protein (hGPVI-hFc) (human); assay: ELISA on immobilised hGPVI-hFc; ++ absorbance 1.0 to 2.0
[5] = target: human GPVI extracellular region-human Fc fusion protein (hGPVI-hFc) (human); assay: SPR (BIACORE 3000), hGPVI-hFc on CM5 chip, 0-800 nM, 1:1 binding fit
[6] = target: rat GPVI-human Fc (rGPVI-hFc) (rat; mouse); assay: ELISA on immobilized antigen; control

human GPVI extracellular region-human Fc fusion protein (hGPVI-hFc) (human), sequence (chain, as listed by the source limits assumed): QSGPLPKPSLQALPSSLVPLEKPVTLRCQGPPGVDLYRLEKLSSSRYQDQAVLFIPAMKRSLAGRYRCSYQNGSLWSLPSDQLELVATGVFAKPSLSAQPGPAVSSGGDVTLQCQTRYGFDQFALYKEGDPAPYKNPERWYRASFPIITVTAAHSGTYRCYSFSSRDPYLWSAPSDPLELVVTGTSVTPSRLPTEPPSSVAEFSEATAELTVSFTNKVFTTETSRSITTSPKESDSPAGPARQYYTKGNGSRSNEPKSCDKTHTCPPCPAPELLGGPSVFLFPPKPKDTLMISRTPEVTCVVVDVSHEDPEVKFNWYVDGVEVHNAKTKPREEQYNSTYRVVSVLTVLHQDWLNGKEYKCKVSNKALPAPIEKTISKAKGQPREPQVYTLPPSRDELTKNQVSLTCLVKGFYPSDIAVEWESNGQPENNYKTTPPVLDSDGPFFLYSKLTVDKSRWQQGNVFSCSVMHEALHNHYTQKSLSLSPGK

KD (Relative value) against F1232-37-2 (relative to KD of F1232-37-2) [1] | absorbance [3] [od] | absorbance [4] [od] | Binder | other results
7.9 |  |  | F1251-1-1 (antibody, V domains shown) VH: QVNLLQSGAALVKPGASVKLSCKASGYTFTDYYIHWVKQSHGKSLEWIGYINPNSGYTNYNEKFKSKATLTVDKSTNTAYMELSRLTSEDSATYYCTRCNSGYGDWFAYWGQGTLLTVSS VL: DIQMTQSPPVLSASVGDRVTLSCKASQNINKNLDWYQQKHGEAPKLLIYYTNNLQTDIPSRFSGSGSGTDYTLTISSLQPEDVATFYCYQYNSGPGTFGAGTKLELKR | absorbance [2]: 0.5 to 1 od
0.00103 | > 2 |  | F1249-18-2 (antibody, V domains shown) VH: QVQLQQPGAELVKPGASVKLSCKASGYTFTSYWMHWLKQRPGQGLEWIGMIHPNSDITNYNEKFKNKATLTVDKSSSTAYMQLSSLTSEDSAVYYCARSGDYYAMDYWGQGTSVTVSS VL: SIVMTQTPKFLLVSAGDRVTITCKASQSVSNDVAWYQQKPGQSPKLLIYYASNRYTGVPDRFTGSGYGTDFTFTISTVQAEDLAVYFCQQDYSSPPTFGGGTKLEIKR | 
0.00427 | > 2 |  | F1245-4-1 (antibody, V domains shown) VH: QVQLQQPGAELVKPGASVKLSCKASGCTFTSYWMHWVKQRPGQGLEWIGMIHPNSDNTNYNEKFKSKATLTVDKSSSTAYMHLSSLTSEDSAVYYCATHYYDYVDYWGQGTTLTVSS VL: NIVMTQTPKFLLVSAGDRVTITCKASQSVSNDVAWYQQKPGQSPKLLIYYASNRYTGVPDRFTGSGYGTDFTFTISTVQAEDLAVYFCQQDYSSPWTFGGGTKLEIKR | 
1.43 |  | 1 to 2 | F1245-5-1 (antibody, V domains shown) VH: QVQLQQPGAELVKPGASVKLSCKASGYTFISYWMHWVKQRPGQGLEWIGMIHPNSGSTHYNEKFKSKATLTVDKSSSTAYMQLSSLTSEDSAVYYCARGGVTPVAYWGQGTLVTVSA VL: SIVMTQTPKFLLVSAGDRVTITCKASQSVSNDVAWYQQKPGQSPKLLIYYASNRYTGVPDRFTGSGYGTDFTFTISTVQAEDLAVYFCQQDYSSPWTFGGGTKLEIKR | 
0.00285 |  | 1 to 2 | F1249-5-1 (antibody, V domains shown) VH: QVQLQQPGAELVKPGASVKLSCKASGYTFTSYWMHWLKQRPGQGLEWIGMIHPNSDITNYNEKFKNKATLTVAKSSSTAYMQLSSLTSEDSAVYYCARLGDYYAMDYWGQGTSVTVSS VL: SIVMTQTPKFLLVSAGDRVTITCKASQSVSNDVTWYQQKPGQSPKLLIYYASNRYTGVPDRFTGSGYGTDFTFTISTVQAEDLAVYFCQQDYSSPPTFGGGTKLEIKR | 
0.00298 | > 2 |  | F1257-3-1 (antibody, V domains shown) VH: QVTLKESGPGMLQPSKTLSLTCSFSGFSLSTSGMVVSWIRQPSGKSLEWLAAIDWDGDKYYNPSLKSRLTVSKDTSNTQVFLKISSVDIADTATYYCARTPYYGYKEAYYFDYWGQGVKVTVSS VL: DIQMTQSPASLSASLEEIVTITCKASRAIDDYLSWYQQKPGKSPQLLIYDATSLADGVPSRFSGSRSGTQYSLKISRPQVDDSGIYYCLQSYSTPWTFGGGTKLDLKR | 
0.00293 |  | 1 to 2 | F1245-7-1 (antibody, V domains shown) VH: QVQLQQPGAELVKPGASVKLSCKASGYTFTSYWMHWVKQRPGQGLEWIGMIHPNSGSTNYNEKFKSKATLTVDKSSSTAYMQLSSLTSEDSAVYYCASPVTAVVEYYFDYWGQGTTLTVSS VL: SIVMTQTPKFLLVSAGDRVTITCKASQSVSNDVAWYQQKPGQSPKLLIYYASNRYTGVPDRFTGSGYGTDFTFTISTVQAEDLAVYFCQQDYSSLTFGSGTKLEIKR | 
0.122 |  | 1 to 2 | F1245-6-2 (antibody, V domains shown) VH: QVQLQQPGAELVKPGASVKLSCKASGYTFTSYWMHWVKQRPGQGLEWIGMIHPNSGSTNYNEKFKSKATLTVDKSSSTAYMQLSSLTSEDSAVYYCARGGVTPVAYWGQGTLVTVSA VL: SIVMTQTPKFLLVSAGDRVTITCKASQSVSNDVAWYQQKPGQSPKLLIYYASNRYTGVPYRFTGSGYGTDFTFTISTVQAEDLAVYFCQQDYSSPWTFGGGTKLEIK | 
 |  |  | F1232-37-2 Fab (Fab, V domains shown) VH: VQLQQSGPELVRPGESVKISCKGSGYTFTDYAIHWVKLSHAKSLEWIGVISIYYDDTNYNQKFKGKATMTVDKSSSTAYLELARLTSEDSAIYYCARRRDSSGPYAMDYWGQGTSVTVSS VL: DIVLTQSPASLAVSLGQRATISCRASESVDSYGNSFMHWYQQKPGQPPKLLIYRASNLESGIPARFSGSGSRTDFTLTINPVEADDVATYYCQQSNEDPYTFGGGTKLEIKR | dissociation constant relative to whole antibody (defined as one) (relative to KD of whole F1232-37-2) [5]: 0.6
0.884 |  | 1 to 2 | F1246-1-1 (antibody, V domains shown) VH: EVQLVESGGDLVKPGGSLKLSCAASGFTFSSYGMSWVRQTPDKRLEWVATISNGGTYTYYPDSVKGRFTISRDNAKNTLYLQMSSLKSDDTAMYYCGRLRDYYAMDYWGQGTSVTVSS VL: DIVLTQSPASLAVSLGQRATISCRASESVDSYGNSFMHWYQQKPGQPPKLLIYRASNLESGIPARFSGSGSRTDFTLTINPVEADDVATYYCQQSNEDPWTFGGGTKLEIKR | 
 |  |  | F1232-37-2 (antibody, V domains shown) VH: VQLQQSGPELVRPGESVKISCKGSGYTFTDYAIHWVKLSHAKSLEWIGVISIYYDDTNYNQKFKGKATMTVDKSSSTAYLELARLTSEDSAIYYCARRRDSSGPYAMDYWGQGTSVTVSS VL: DIVLTQSPASLAVSLGQRATISCRASESVDSYGNSFMHWYQQKPGQPPKLLIYRASNLESGIPARFSGSGSRTDFTLTINPVEADDVATYYCQQSNEDPYTFGGGTKLEIKR | absorbance (ELISA) [6]: 0.137
0.00205 | > 2 |  | F1249-20-1 (antibody, V domains shown) VH: QVQLQQSGAELVRPGVSVKISCKGSGYTFTDYAMHWVKQSHAKSLEWIGVISTYYGDTSYNQKFKGKATMTVDKSSSTAYMELARLTSEDSAIYYCARAEDYDPWFAYWGQGTLVTVSA VL: DIVLTQSPASLAVSLGQRATISCRASESVDSYGNSFMYWYQQKPGQPPKLLIYRASNLESGIPARFSGSGSRTDFTLTINPVEADDVATYYCQQSDEDPLTFGAGTKLELKR | 
0.00821 | > 2 |  | F1249-24-1 (antibody, V domains shown) VH: QVQLQQSGAELVRPGVSVKISCKGSGYTFTDYAMHWVKQSHAKSLEWIGVISTYYGDTSYNQKFKGKATMTVDKSSSTAYMELARLTSEDSAIYYCARAEDYDPWFAYWGQGTLVTVSA VL: DIVLTQSPASLAVSLGQRATISCRASESVDSYGNSFMHWYQQKPGQPPKLLIYRASNLESGIPARFSGSGSRTDFTLTINPVEADDVATYYCQQSDEDPLTFGAGTKLELKR | 
0.347 | > 2 |  | F1249-30-1 (antibody, V domains shown) VH: QVQLQQSGAELVRPGVSVKISCKGSGYTFTDYAMHWVKQSHAKSLEWIGVISTYYGDTSYNQKFKGKAAMTVDKSSSTAYMELARLTSDDSAIYYCARAEDYDPWFAYWGQGTLVTVSA VL: DIVLTQSPASLAVSLGQRATISCRASESVDSYGNSFMHWYQQKPGQPPKLLIYRASNLESGIPARFSGSGSRTDFTLTINPVEADDVATYYCQQSDEDPLTFGAGTKLELKR | 

Reference: patent EP1876240B1
